For assay [1], the target named is RSV F on RSV-A2 virus (Respiratory Syncytial Virus (RSV-A2), UniProt P03420 26-574). The experiment in a line: cell-based or functional assay.
Assay [2] concerns the target T1, RSV prefusion F (preF), subtype B (respiratory syncytial virus subtype B).
T1 construct: also called Prefusion subtype B
Description: BLI, IgG.

Assay [3] deals with RSV F on RSV subtype B virus (mKate-RSV B 18537) (respiratory syncytial virus B 18537, UniProt P13843 26-574). Description: cell-based or functional assay.
The target of assay [4] is RSV F on RSV-A2 virus (Respiratory syncytial virus (RSV-A2)). The experiment in a line: cell-based or functional assay.
In assay [5] the target is T2, RSV postfusion F (postF), subtype A (respiratory syncytial virus subtype A, UniProt P03420 26-513).
T2 construct: also called Postfusion subtype A; F deltaFP
Description: BLI.

20 molecules from patent publication US20260258115A1 (MAPP BIOPHARMACEUTICAL, published 2026) can be followed below.

Where only a bound is given, the exact number is not on record here.

B1: ADI-41515 (antibody, V domains shown)
VH: QVQLVESGGGLVQPGGSLRLSCAASGFTFSDYAMSWVRQAPGKGLVWVSSISGSGKFTYYEDSLRGRVTISRDNSKNTVYLHMNSLRTEDTALYYCARLRIPVINEVDGAMDVWGQGTTVTVSS
VL: SYELTQLPSVSVSPGQTARITCSGDALPKKFAYWYQQKSGQAPVLVIYEDTGRPSGIPERFSGSTSGTTATLTINGAQVEDEGDYYCYSADSSDNQGVFGGGTKVTVL
Consider B1, for which the “Neutralization IC50 (RSV subtype A)” value with RSV F on RSV-A2 virus [1] is greater than 25 mg/L.

B2: ADI-14374 (antibody, V domains shown)
VH: QVQLVQSGGVVVQPGGSLRLSCAASGFNFDDFTMHWVRQAPGKGLEWVSLITWDGGITYYADSVKGRFTISRDNGKNSLYLRMNSLRTEDTALYYCAKDGDRYSGYAFLDYWGQGTLVTVSS
VL: SYELTQPPSVSVAPGKTARLTCGGNNIGSESVHWYQQRPGQAPVLVSYYNGDRPSGIAERISASKSGNTATLTIYRVEAGDEADYYCQVWHSSSDHFVFGTGTQLTVL
notes: full-length IgG; also called Ab 42
One may read the Kd as the equilibrium constant for the complex coming apart. Read a low Kd as tighter binding. Consider B2, for which binding in assay [2] was characterised by a dissociation constant (Kd) of 2.09 nM. Further, the “Neut IC50 subtype B” value in assay [3] was determined as 0.86 mg/L.

B3: ADI-41346 (antibody, V domains shown)
VH: QVQLVQSGPEVKKPGESLKISCTLSASGLTTYWIGWVRQMPAKGLEWMGIIFPGDSDTRYSPSFQGQVTISADKSTNTAYLQWSGLKASDTAIYYCATLQTPVTGLDQWGQGTLVTVSS
VL: NFMLTQPHSVSESPGKTVTISCTRSSGNIARSYVQWYQQRPGSAPTTVIHEDDQRPSGVPDRFSGSIDTSSNSASLTISGLKTEDEADYYCQSYDPSNYVFGTGTKVTVL
With B3, in the assay with RSV F on RSV-A2 virus [4], the “Neutralization IC50 (RSV subtype A)” value was greater than 25 mg/L.

B4: ADI-41520 (antibody, V domains shown)
VH: EVQLLESGGGVVRPGGSLRLSCAASGFSFDDYGMTWVRQAPGKGLEWVSGINWNGISTDYADSVKGRFTISRDNAKNSVYLQMNSLRAEDTALYYCARIGGVVVIASTAYYYGMDVWGQGTTVTVSS
VL: DIQLTQSPSSLSAYVGDRVTITCRASQSIRNHLNWYQQKPGKAPQLLIYTASSLQDGVPSRFSGSGSGTDFTLAISSLQPEDFATYYCQQSHSMPPTFGQGTRLEIK
On to B4, for which, in the assay with RSV F on RSV-A2 virus [1], the “Neutralization IC50 (RSV subtype A)” value was greater than 25 mg/L.

B5: ADI-19487 (antibody, V domains shown)
VH: QVTLKESGPALVKPTQTLTLTCTFSGLSISTSGMCVSWIRQPPGKALEWLARIDWDDDKYYSTSLKTRLTISKDTSKNQVVLTMTNMDPVDTATYYCARINYYDSSGYYVYYFDYWGQGTLVTVSS
VL: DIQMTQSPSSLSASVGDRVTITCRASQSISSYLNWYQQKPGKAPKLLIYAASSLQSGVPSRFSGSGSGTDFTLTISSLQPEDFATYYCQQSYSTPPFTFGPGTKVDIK
Take B5: in assay [3], the “Neut IC50 subtype B” value amounted to 7.96 mg/L.

B6: ADI-14370 (antibody, V domains shown)
VH: EVQLVESGGGVVQPGKSLRLSCAASGFSFSTFAMHWVRQAPGKGLEWVAVISYDGSNKFYADSVKGRFTISRDSSKNTLYLQMNSLRAEDTAVYYCARGGYSSGWYVTHFDYWGQGTLVTVSS
VL: QSVLTQPPSASGSPGQSVTISCTGTSSDVGGYNYVSWYQQHPGKAPKLMIYEVSKRPSGVPDRFSGSKSGNTASLTVSGLQAEDEADYYCSSYAGSNNLYVFGTGTKLTVL
notes: full-length IgG; also called Ab 38
Turning to B6, the Kd in assay [2] was 4.18 nM. Further, the “Neut IC50 subtype B” value in assay [3] is 1.38 mg/L.

B7: ADI-14377 (antibody, V domains shown)
VH: EVQLVESGGGVVQPGGSLRLSCAVSGITFSSYGMHWVRQAPGKGLEWVAFIRYDGSNKYYGDSLRGRFTISRDNSKNTLYLQMNSLRAEDTAVYYCAKDAVGIGGYYGLDVWGQGTTVTVSS
VL: DIQMTQSPSSLSASVGDRVTITCRASQGIRNDLGWYQQKPGKAPKRLIYAASSLQSGVPSRFSGSGSGTEFTLTISSLQPEDFATYYCLQHNGYPWTFGQGTKVEIK
notes: full-length IgG; also called Ab 45
Regarding B7, the Kd in assay [2] was 5.28 nM. Further, the binding result in assay [5] is “no binding”. Moreover, the “Neut IC50 subtype B” value in assay [3] was 2.13 mg/L.

B8: ADI-14378 (antibody, V domains shown)
VH: QVQLVESGGGLVQPGGSLRLSCAASGFTFSSYWMHWVRQAPGKGLVWVSRINSDGSSPTYADSVKGRFTISRDNAKNTVFLQMNSLRAEDTAVYYCARESWELIRGDAFDIWGQGTTVTVSS
VL: DIQMTQSPSSLSASVGDRVTITCRASQSISSSLNWYQQKPGKAPNLLIYAASTLQSGVPSRFSGSGSGTDFTLTISSLQPEDFATYYCQQSYRTPRTFGQGTKVEIK
notes: full-length IgG; also called Ab 46
In the case of B8, binding in assay [2] was characterised by a dissociation constant (Kd) of 6.1 nM. For the same molecule, the “Neut IC50 subtype B” value in assay [3] was determined as 21.6 mg/L.

B9: ADI-41519 (antibody, V domains shown)
VH: QVQLVESGPGLVKPSETLSLTCNVSGGSIITSGSYWGWIRQPPGKGLTWIGSISYSGTTYYNPSLRSRLTISLDTSRNHFSLQLTSVSAADTAVYYCARAFYEVWTGSEIPGDFDRWGQGTLVTVSS
VL: EIVLTQSPGTLSLSPGERATLSCRASQSVSSSYLAWYQQKPGQAPRLLIYGASSRAIDIPDRFSGSGSGTDFTLTISRLEPEDFAVYYCQQFRRSPWTFGQGTKVDIK
In the case of B9, the “Neutralization IC50 (RSV subtype A)” value with RSV F on RSV-A2 virus [1] was greater than 25 mg/L.

B10: ADI-14349 (antibody, V domains shown)
VH: EVQLVESGAEVKKPGSSVKVSCKASGGTLSSYAFSWVRQAPGQGLEWMGGVIPISATSDYAQKFQGRVTITADESTSTVYMELRSLRSEDTAVYYCARDTRYSSGWFYDYWGQGTLVTVSS
VL: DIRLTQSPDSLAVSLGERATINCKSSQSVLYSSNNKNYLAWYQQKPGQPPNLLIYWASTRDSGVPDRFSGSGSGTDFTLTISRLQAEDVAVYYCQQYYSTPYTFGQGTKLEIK
notes: full-length IgG; also called Ab 17
On to B10, for which, in assay [2], the Kd worked out at 4.07 nM. Moreover, the binding result in assay [5] is recorded as “no binding”. Besides, in assay [3], the “Neut IC50 subtype B” value turned out to be 1.84 mg/L.

B11: ADI-19488 (antibody, V domains shown)
VH: QVQLVQSGAEVKKPGASVKVSCKVSGYTLTELSMHWVRQAPGKGLEWMGGFDPEDGETIYAQKFQGRVTMTEDTSTDTAYMELSSLRSEDTAVYYCATARFLEWLSGTNWFDPWGQGTLVTVSS
VL: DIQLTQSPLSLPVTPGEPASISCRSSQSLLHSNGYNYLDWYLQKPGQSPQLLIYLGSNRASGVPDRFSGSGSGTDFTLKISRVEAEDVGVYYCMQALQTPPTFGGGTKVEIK
notes: full-length IgG; also called Ab 190
As for B11, the affinity in assay [2], expressed as Kd, was 10.7 nM. The binding result in assay [5] is listed as “no binding”. In assay [3], the “Neut IC50 subtype B” value was 3.38 mg/L.

B12: ADI-41542 (antibody, V domains shown)
VH: EVQLVESGVAVKKPGESLKISCKGSGYNFDSFWIGWVRQLPGKGLEWMGIIFPGDSDTRYGPSFQGQVTISADKSINTAYLQWRSLKASDTAMYYCARHGLGGYDNSGYNLWGHGTMVTVSS
VL: DIVMTQSPSSLSASVGDRVTITCQASHDISTSLNWYQQKPGKAPNLLISDASTLERGVPSRFSGGGSGTEFTFTISSLQPEDIATYYCQQFENLPITFGQGTRLEIK
Take B12: the “Neutralization IC50 (RSV subtype A)” value in the assay with RSV F on RSV-A2 virus [1] worked out at 0.69 mg/L.

B13: ADI-41522 (antibody, V domains shown)
VH: QVQLVQSGAEVKKPGSSVKVSCKASGGTFNNFPISWVRQAPGQGLEWMGGIIPMFGRANYAQKFQGRVTITADESTTTVYMALRSLRSEDTAVYYCARPDYDVLTGFEGAFDIWGQGTMVTVSS
VL: QSALTQPASVSGSPGQLITISCTGTSRDVGGYNYVSWYQQHPGKAPKLMIYDVTNRPSGVSNRFSGSKSGNTASLTISGLQSEDEADYYCSSYTSTTTWVFGGGTKLTVL
As for B13, the “Neutralization IC50 (RSV subtype A)” value in the assay with RSV F on RSV-A2 virus [1] is greater than 25 mg/L.

B14: ADI-43643 (antibody, V domains shown)
VH: QVQLVQSGGGLVKPGGSLRLSCAASGFTFSSYSMNWVRQAPGKGLEWVSSISSSSSYIYYADSVKGRFTISRDNAKNSLYLQMNSLRAEDTAVYYCARVLSGYSYGYDYWGQGTLVTVSS
VL: QSVLTQPPSVSGAPGQRVTISCTGSSSNIGAGYDVHWYQQLPGTAPKLLIYGNSNRPSGVPDRFSGSKSGTSASLAITGLQAEDEADYYCQSYDSSLSGSVFGTGTKVTVL
With B14, the “Neutralization IC50 (RSV subtype A)” value with RSV F on RSV-A2 virus [1] is greater than 25 mg/L.

B15: ADI-41467 (antibody, V domains shown)
VH: EVQLVESGGGLVKPGGSLRLSCAASGFSFSSYNMNWVRQAPGKGLEWVSSISGGSSFVNYADSVKGRFTISRDNAKNSLYLQMSSLKAEDTAIYYCARDPVYCSAASCSAYFDSWGQGSLVTVSS
VL: QSVLTQPPSVSGAPGQRVTISCTGSSSNIGAGYDVHWYQQLPGTAPKLLIYGNNNRPSGVPDRFSGFKSGSSASLAITGLQAEDEADYYCQSYDIGLSDSHVVFGGGTQLTVL
Regarding B15, in the assay with RSV F on RSV-A2 virus [1], the “Neutralization IC50 (RSV subtype A)” value is greater than 25 mg/L.

B16: ADI-41505 (antibody, V domains shown)
VH: QVQLQQSGAGLLKPSETLSLTYVVYGGSFSGYYWSWIRQPPGKGLEWVGDINHSTTTNYNPSLESRITISIDTSKNQFSLNLSSVTAADSAVYYCARGPKECTSSSCDRFGVDYFYYGMDVWGRGTTVTVSS
VL: QSVLTQPPSVSGAPGQRVTISCTGSSANIGAGYDVHWYQQFPGTAPKLLIFGNSNRPSGVPDRFSGSKSGTSASLAITGLQAGDEADYYCQSYDGTLGGWVFGGGTQLTVL
As for B16, in the assay with RSV F on RSV-A2 virus [1], the “Neutralization IC50 (RSV subtype A)” value was greater than 25 mg/L.

B17: ADI-41518 (antibody, V domains shown)
VH: EVQLVESGGGLVKPGGSLRLSCAASGFTFSSYSMNWVRQAPGKGLEWVSSISSSSSYINYADSVKGRFTISRDNAKNSLYLQMNSLRAEDTALYYCARDLGYCSDTSCTPGIGYWGQGTLVTVSS
VL: QPVLTQPPSVSGAPGQRVTISCTGSSSNIGAGYDVHWYQQLPGTAPKLLIYGNSNRPSGVPDRFSGSKSGTSASLAITGLQAEDEADYYCQSYDSGLSPWVFGGGTKLTVL
In the case of B17, the “Neutralization IC50 (RSV subtype A)” value with RSV F on RSV-A2 virus [1] is greater than 25 mg/L.

B18: ADI-41347 (antibody, V domains shown)
VH: EVQLVESGPGLVKPSGTLSLTCAVSGGSVSSDNWWSWVRQPPGKGIEWIGEIYPSGGTNYNPSLNSRVTISVDKSKNQFSLKLNSVTAADTAIYYCARAPFDSSGYHSNSVWGQGTLVTVSS
VL: ETTLTQSPLSLPVTPGEPASISCRSSQSLLHSNGHNYLDWYVQKPGQSPQLLIYLSSNRASGVPDRFSGSGSGTDFTLRISRVEAEDVGVYYCMQPLQTPQTFGQGTKVEIK
With B18, in the assay with RSV F on RSV-A2 virus [4], the “Neutralization IC50 (RSV subtype A)” value is greater than 25 mg/L.

B19: ADI-41349 (antibody, V domains shown)
VH: EVQLLESGGGLVQPGRSLRLSCTGSGFTFGDYAMNWVRQAPGKGLEWVGLIRSKDYGGTTEFAASLKGRLTISRDDSKSIAYLQMHSLKTEDSAVYYCTRAHLTDYTDINGYQYYFDYWGQGSPVTVSS
VL: DIQMTQSPSSLSASVGDRVTITCQASQDISNFLNWYQQRPGKAPKLLIHDASNLETGVPSRFSGSGSRTEFTFTISSLQPEDIGTYYCQHYDNFPYTFGQGTKVEIK
Take B19: the “Neutralization IC50 (RSV subtype A)” value with RSV F on RSV-A2 virus [4] is greater than 25 mg/L.

B20: ADI-41348 (antibody, V domains shown)
VH: QVQLQESGPGLVKPSQTLSLTCAVSGGSISSGGYYWSWIRQHPGKGLEWIGYIYYSGSTYYNPSLKSPVTISVDTSKNQFSLKLTSVTAADTAVYYCARGDYYFDGSGRTTAAFDIWGQGTMVTVSS
VL: DIQVTQSPSSLSASVGDRVTITCRASQSISTFLNWYQQKPGRAPKLLIYDASNLQSGVPSRVSGSGSGTDFTLTISSLHPEDFATYYCQQSYTTPYTFGQGTKVDIK
B20: the “Neutralization IC50 (RSV subtype A)” value in the assay with RSV F on RSV-A2 virus [4] came to 0.0765 mg/L.
